{
  "source": "patent US20240425882",
  "proteins": {"B1": {"name": "human CDKL5, isoform 4 (protein)", "chain": "MKIPNIGNVMNKFEILGVVGEGAYGVVLKCRHKETHEIVAIKKFKDSEENEEVKETTLRELKMLRTLKQENIVELKEAFRRRGKLYLVFEYVEKNMLELLEEMPNGVPPEKVKSYIYQLIKAIHWCHKNDIVHRDIKPENLLISHNDVLKLCDFGFARNLSEGNNANYTEYVATRWYRSPELLLGAPYGKSVDMWSVGCILGELSDGQPLFPGESEIDQLFTIQKVLGPLPSEQMKLFYSNPRFHGLRFPAVNHPQSLERRYLGILNSVLLDLMKNLLKLDPADRYLTEQCLNHPTFQTQRLLDRSPSRNQAGKSTALQSHHRSNSKDIQNLSVGLPRADEGLPANESFLNGNLAGASLSPLHTKTYQASSQPGSTSKDLTNNNIPHLLSPKEAKSKTEFDFNIDPKPSEGPGTKYLKSNSRSQQNRHSFMESSQSKAGTLQPNEKQSRHSYIDTIPQSSRSPSYRTKAKSHGALSDSKSVSNLSEARAQIAEPSTSRYFPSSCLDLNSPTSPTPTRHSDTRTLLSPSGRNNRNEGTLDSRRTTTRHSKTMEELKLPEHMDSSHSHSLSAPHESFSYGLGYTSPFSSQQRPHRHSMYVTRDKVRAKGLDGSLSIGQGMAARANSLQLLSPQPGEQLPPEMTVARSSVKETSREGTSSFHTRQKSEGGVYHDPHSDDGTAPKENRHLYNDPVPRRVGSFYRVPSPRPDNSFHENNVSTRVSSLPSESSSGTNHSKRQPAFDPWKSPENISHSEQLKEKEKQGFFRSMKKKKKKSQTTDSTNGENPSIKKSLFPLFNSKNHLKHSSSLKKLPVVTPPMVPNSDSPDLLTLQKSIHSASTPSSRPKEWRPEKISDLQTQSQPLKSLRKLLHLSSASNHPASSDPRFQPLTAQQTKNSFSEIRIHPLSQASGGSSNIRQEPAPKGRPALQLPGQMDPGWHVSSVTRSATEGPSYSEQLGAKSGPNGHPYNRTNRSRMPNLNDLKETAL"}, "B2": {"name": "human cyclin-dependent kinase-like 5 (CDKL5), isoform 1 (protein)", "chain": "MKIPNIGNVMNKFEILGVVGEGAYGVVLKCRHKETHEIVAIKKFKDSEENEEVKETTLRELKMLRTLKQENIVELKEAFRRRGKLYLVFEYVEKNMLELLEEMPNGVPPEKVKSYIYQLIKAIHWCHKNDIVHRDIKPENLLISHNDVLKLCDFGFARNLSEGNNANYTEYVATRWYRSPELLLGAPYGKSVDMWSVGCILGELSDGQPLFPGESEIDQLFTIQKVLGPLPSEQMKLFYSNPRFHGLRFPAVNHPQSLERRYLGILNSVLLDLMKNLLKLDPADRYLTEQCLNHPTFQTQRLLDRSPSRSAKRKPYHVESSTLSNRNQAGKSTALQSHHRSNSKDIQNLSVGLPRADEGLPANESFLNGNLAGASLSPLHTKTYQASSQPGSTSKDLTNNNIPHLLSPKEAKSKTEFDFNIDPKPSEGPGTKYLKSNSRSQQNRHSFMESSQSKAGTLQPNEKQSRHSYIDTIPQSSRSPSYRTKAKSHGALSDSKSVSNLSEARAQIAEPSTSRYFPSSCLDLNSPTSPTPTRHSDTRTLLSPSGRNNRNEGTLDSRRTTTRHSKTMEELKLPEHMDSSHSHSLSAPHESFSYGLGYTSPFSSQQRPHRHSMYVTRDKVRAKGLDGSLSIGQGMAARANSLQLLSPQPGEQLPPEMTVARSSVKETSREGTSSFHTRQKSEGGVYHDPHSDDGTAPKENRHLYNDPVPRRVGSFYRVPSPRPDNSFHENNVSTRVSSLPSESSSGTNHSKRQPAFDPWKSPENISHSEQLKEKEKQGFFRSMKKKKKKSQTVPNSDSPDLLTLQKSIHSASTPSSRPKEWRPEKISDLQTQSQPLKSLRKLLHLSSASNHPASSDPRFQPLTAQQTKNSFSEIRIHPLSQASGGSSNIRQEPAPKGRPALQLPGQMDPGWHVSSVTRSATEGPSYSEQLGAKSGPNGHPYNRTNRSRMPNLNDLKETAL"}, "B3": {"name": "human CDKL5, isoform 2 (protein)", "chain": "MKIPNIGNVMNKFEILGVVGEGAYGVVLKCRHKETHEIVAIKKFKDSEENEEVKETTLRELKMLRTLKQENIVELKEAFRRRGKLYLVFEYVEKNMLELLEEMPNGVPPEKVKSYIYQLIKAIHWCHKNDIVHRDIKPENLLISHNDVLKLCDFGFARNLSEGNNANYTEYVATRWYRSPELLLGAPYGKSVDMWSVGCILGELSDGQPLFPGESEIDQLFTIQKVLGPLPSEQMKLFYSNPRFHGLRFPAVNHPQSLERRYLGILNSVLLDLMKNLLKLDPADRYLTEQCLNHPTFQTQRLLDRSPSRSAKRKPYHVESSTLSNRNQAGKSTALQSHHRSNSKDIQNLSVGLPRADEGLPANESFLNGNLAGASLSPLHTKTYQASSQPGSTSKDLTNNNIPHLLSPKEAKSKTEFDFNIDPKPSEGPGTKYLKSNSRSQQNRHSFMESSQSKAGTLQPNEKQSRHSYIDTIPQSSRSPSYRTKAKSHGALSDSKSVSNLSEARAQIAEPSTSRYFPSSCLDLNSPTSPTPTRHSDTRTLLSPSGRNNRNEGTLDSRRTTTRHSKTMEELKLPEHMDSSHSHSLSAPHESFSYGLGYTSPFSSQQRPHRHSMYVTRDKVRAKGLDGSLSIGQGMAARANSLQLLSPQPGEQLPPEMTVARSSVKETSREGTSSFHTRQKSEGGVYHDPHSDDGTAPKENRHLYNDPVPRRVGSFYRVPSPRPDNSFHENNVSTRVSSLPSESSSGTNHSKRQPAFDPWKSPENISHSEQLKEKEKQGFFRSMKKKKKKSQTTDSTNGENPSIKKSLFPLFNSKNHLKHSSSLKKLPVVTPPMVPNSDSPDLLTLQKSIHSASTPSSRPKEWRPEKISDLQTQSQPLKSLRKLLHLSSASNHPASSDPRFQPLTAQQTKNSFSEIRIHPLSQASGGSSNIRQEPAPKGRPALQLPGQMDPGWHVSSVTRSATEGPSYSEQLGAKSGPNGHPYNRTNRSRMPNLNDLKETAL"}, "B4": {"name": "human CDKL5, isoform 3 (protein)", "chain": "MKIPNIGNVMNKFEILGVVGEGAYGVVLKCRHKETHEIVAIKKFKDSEENEEVKETTLRELKMLRTLKQENIVELKEAFRRRGKLYLVFEYVEKNMLELLEEMPNGVPPEKVKSYIYQLIKAIHWCHKNDIVHRDIKPENLLISHNDVLKLCDFGFARNLSEGNNANYTEYVATRWYRSPELLLGAPYGKSVDMWSVGCILGELSDGQPLFPGESEIDQLFTIQKVLGPLPSEQMKLFYSNPRFHGLRFPAVNHPQSLERRYLGILNSVLLDLMKNLLKLDPADRYLTEQCLNHPTFQTQRLLDRSPSRNQAGKSTALQSHHRSNSKDIQNLSVGLPRADEGLPANESFLNGNLAGASLSPLHTKTYQASSQPGSTSKDLTNNNIPHLLSPKEAKSKTEFDFNIDPKPSEGPGTKYLKSNSRSQQNRHSFMESSQSKAGTLQPNEKQSRHSYIDTIPQSSRSPSYRTKAKSHGALSDSKSVSNLSEARAQIAEPSTSRYFPSSCLDLNSPTSPTPTRHSDTRTLLSPSGRNNRNEGTLDSRRTTTRHSKTMEELKLPEHMDSSHSHSLSAPHESFSYGLGYTSPFSSQQRPHRHSMYVTRDKVRAKGLDGSLSIGQGMAARANSLQLLSPQPGEQLPPEMTVARSSVKETSREGTSSFHTRQKSEGGVYHDPHSDDGTAPKENRHLYNDPVPRRVGSFYRVPSPRPDNSFHENNVSTRVSSLPSESSSGTNHSKRQPAFDPWKSPENISHSEQLKEKEKQGFFRSMKKKKKKSQTVPNSDSPDLLTLQKSIHSASTPSSRPKEWRPEKISDLQTQSQPLKSLRKLLHLSSASNHPASSDPRFQPLTAQQTKNSFSEIRIHPLSQASGGSSNIRQEPAPKGRPALQLPGQMDPGWHVSSVTRSATEGPSYSEQLGAKSGPNGHPYNRTNRSRMPNLNDLKETAL"}},
  "molecular_target": "T1, microtubule-associated protein EB2 (endogenous, mouse brain), Q8R001",
  "T1 chain": "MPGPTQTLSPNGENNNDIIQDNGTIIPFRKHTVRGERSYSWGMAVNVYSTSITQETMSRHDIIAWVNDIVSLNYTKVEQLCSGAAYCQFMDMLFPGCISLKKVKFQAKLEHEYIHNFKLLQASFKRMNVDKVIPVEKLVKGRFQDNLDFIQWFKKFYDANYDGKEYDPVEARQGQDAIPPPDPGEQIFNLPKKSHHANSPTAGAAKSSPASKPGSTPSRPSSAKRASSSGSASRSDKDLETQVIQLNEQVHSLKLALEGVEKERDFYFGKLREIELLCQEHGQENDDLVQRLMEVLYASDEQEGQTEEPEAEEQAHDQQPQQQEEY",
  "data": [
    {"protein": "B1", "values": [
      {"measurement": "EB2 phosphorylation levels (Western blot, Cdkl5-ko mouse brain)", "value": "by isoforms three or 4 slightly lower compared to isoform 1"}
    ]},
    {"protein": "B2", "values": [
      {"measurement": "EB2 phosphorylation (Cdkl5(D471fs) mouse brain)", "value": "showed robust hCDKL5 protein expression and EB2 phosphorylation 3 months later"},
      {"measurement": "EB2 phosphorylation (Cdkl5(R59X) mouse brain)", "value": "showed robust hCDKL5 protein expression and EB2 phosphorylation 3 months later"},
      {"measurement": "ability to phosphorylate EB2 (pS222 EB2 Western blot, mouse brain)", "value": "CDKL5 was fully active, as determined by its ability to phosphorylate its endogenous target EB2 protein"},
      {"measurement": "kinase activity, blotting for phosphorylated EB2 (Cdkl5-ko mouse brain, 3 months after AAV)", "value": "human CDKL5 showed robust kinase activity when blotting for phosphorylated EB2 protein"},
      {"measurement": "substrate phosphorylation by CDKL5 (phospho-EB2 levels, pS222/total EB2, Western blot, brain)", "value": "the observed reduction in substrate phosphorylation by CDKL5 (as determined by phospho-EB2 levels) ... was restored to wild type levels"}
    ]},
    {"protein": "B3", "values": [
      {"measurement": "EB2 phosphorylation levels (Western blot, Cdkl5-ko mouse brain)", "value": "EB2 phosphorylation levels generated by isoform 2 were slightly higher ... compared to isoform 1"}
    ]},
    {"protein": "B4", "values": [
      {"measurement": "EB2 phosphorylation levels (Western blot, Cdkl5-ko mouse brain)", "value": "by isoforms three or 4 slightly lower compared to isoform 1"}
    ]}
  ]
}
